The values below come from patent US20250304712A1 (NATIONAL UNIVERSITY OF SINGAPORE, published 2025).

Test [1] deals with T1, Lymphocyte antigen 6 family member K (LY6K) expressed on the cell surface of human cells (human, UniProt Q17RY6 18-138).
T1 construct: whole, on cells; overexpressed in HEK293T for ADCC; also called LY6K on Ca Ski, Calu-1 and other human cancer cell lines; HEK293T-Ly6K overexpressing cells
T1 sequence (looked up): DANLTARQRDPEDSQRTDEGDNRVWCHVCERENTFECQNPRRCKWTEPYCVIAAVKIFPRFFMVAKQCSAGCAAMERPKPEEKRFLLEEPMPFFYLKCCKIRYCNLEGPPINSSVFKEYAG
Kind of test: flow cytometry on Calu-1 cells. Background: A flow cytometer gives signals particle by particle.

For test [2], the target named is T1, Lymphocyte antigen 6 family member K …. Put plainly: flow cytometry on human cancer cell lines.

B1: humanized 22C-G8 (antibody, V domains shown)
VH: QVQLVQSGAEVKKPGASVKVSCKASGYTFTSYWMHWVRQAPGQGLEWIGEINPSNGGANYNEKFKRRATMTVDKSTSTVYMELSSLRSEDTAVYYCTMGGNFFFAYWGQGTLVTVSS
VL: DVVMTQSPLSLSVTLGQPASISCKSSQSLLASDGKTYLNWFQQRPGQSPRRLIYLVSKLDSGVPDRFSGSGSGTDFTLKISRVEAEDVGVYYCWQGSHFPLTFGGGTKVE
notes: CDR-grafted into human frameworks; also called Hu22C-G8; Hu 22C-G8
Take B1: the binding result in test [1] is given as “binds”.

B2: murine anti-LY6K antibody G57 (antibody, V domains shown)
VH: EVQLVESGGDLVKPGGSLKLSCAASGFTFNSYGMSWVRQTPDKRLEWVATISSGGTYTYYSDSVKGRFTISRDNAKNILYLHMSSLKSEDTAMYYCARHDWDFFDYWGQGTTLTVSS
VL: DVVMTQTPLSLPVSLGDQASISCRSSQSLVHTDGDTYLNWYLQKPGQSPKLLIYKVSNRFSGVPDRFSGSGSGTDFTLKIRRVEAEDLGVYFCSQNTHVYTFGGGTKLE
notes: Hybridoma-derived; also called Ms G57
As for B2, in test [2], the binding result is “binds”.
